# Test: yeast display, Sf9 membrane polyspecificity reagent, FACS + sequencing; frameworks hold sequencing errors
# How it was run: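 Galactose-induced (36–48 hours) yeast carrying a synthetic nanobody display library were exposed to 10% biotinylated, detergent-solubilized Sf9 membrane reagent at 4 °C for 1 hour. FACS followed streptavidin microbead enrichment, using low and high (top ~1%) gates for expression (anti-HA) and reagent binding (streptavidin). Colony PCR, MiSeq 2 × 250 sequencing and CDR-length filtering followed. Labels for polyreactivity reflect the gate of origin.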
row,Sequence,polyreactivity (PSR sort gate)
1,QVQLVESGGGLVQAGGSLRLSCAASGSTYRYYAMGWYRQAPGKERELVAGISWSGTSTYYADSVKGRFTISRDNANNTVYLQMNSLKPEDTAVYYSNVVWWSRYGTTYKYDYWGQGTQVTVSS,high polyreactivity
2,QVQLVESGGGLVQAGGSLRLSCAASGSTYSWYVMGWYRQAPGKERELVAAISYRGGRTYYADSVKGRFTISRDNAKNTVYLQMNSLKPEDTAVYYCAARGVVDAGRTNRPYDYWGQGTQVTVSS,low polyreactivity
3,QVQLVESGGGLVQAGGSLRLSCAASGSTYVYYAMGWYRQAPGKERELVAAISSSGGSTYYADSVKGRFTISRDNAKNTVYLQMNILKPEDTAVYYCNRYSSYIPYPYNYWGQGTQVTVSS,high polyreactivity
4,QVQLVESGGGLVQAGGSLRLSCAASGSTYWNAMGWYRQAPGKERELVAAITFRGGSTYADSVKGRFTISRDNAKNTVYLQMNSLKPEDTAVYYCAKASSHRWYNVRNRAGYDYWGQGTQVTVSS,high polyreactivity
5,QVQLVESGGGLVQAGGSLRLSCAASGSTYYAYAMGWYRQAPGKEREFVAAISSGGGSTYYADSVKGRFTISRDNAKNTVYLQMNSLKPVDTAVYYCAAVLYYYWRGYGPRSNRYDYWGQGTQVTVSS,high polyreactivity
6,QVQLVESGGGLVQAGGSLRLSCAASGSTYYFYPMGSYRQAPGKERELVAAISFTDTSTYYADSVQGRFTISRDNAKNTVYLQMNSLKPEDTAVYYCAARYAGGYYYWGQGTQVTVSS,high polyreactivity
7,QVQLVESGGGLVQAGGSLRLSCAASGSTYYNALGWYRPAPGKERELVAAIRFRSGSTYYADSVKGRFTISRDNAKNTDYVQMNSLKPEDTAVYYCAADNKRSWRYAYNYWGQGTQVTVSS,high polyreactivity
8,QVQLVESGGGLVQAGGSLRLSCAASGSYFDYYAMGCYTQAPGKERELVAAISWRGGTTYYADSVKGRFTISRDTAKKTVYLQMNSLKPEETAVYYCNADKRFRRYDYWGQGTQVTVSS,high polyreactivity
9,QVQLVESGGGLVQAGGSLRLSCAASGTFAGNALGWYRQAPGKERELVASITTGVRTYYADSGKGRFTLSRDNAKNTVYLQMHCLKPEDTAVYYCAADRIRDLEFYYWGQGTQVTVSS,low polyreactivity
10,QVQLVESGGGLVQAGGSLRLSCAASGTFAGNAMGWYRQAPGKERELVAAITTGGRTYYADSVKRRFTISRDNAKNTLYIQMNSLKPEDTAVYYCAADRIRDLEFDYWGQGTQVTVSS,low polyreactivity
11,QVQLVESGGGLVQAGGSLRLSCAASGTFGYMGWYRQAPGKERELVAAITSRGGGNTYYADSVKGRFTISRDNAKNTVYLQMNSLKPEDTAVYYCAASRVGYHGQTYDYWGQGTQVTVSS,high polyreactivity
12,QVQLVESGGGLVQAGGSLRLSCAASGTFGYYTMGWYRQAPGKERELVAAITRSGGSTYYADSVKGRFTISRDNAKNTVYLQMNSLKPEDTAVYYFATELHAWSSWNRYRAYYYWGQGTQVTVSS,high polyreactivity
13,QVQLVESGGGLVQAGGSLRLSCAASGTFHKYAMGWYRQAPGKERELVASISRSGGSTSYADSVKGRFTISRDNAKNTVYLQMNSLKPEDTAVYYCNAYQSSGRYRNSYGYWGQGTQVTVSS,high polyreactivity
14,QVQLVESGGGLVQAGGSLRLSCAASGTFKWYAMGWYRQAPGKERELVAVISSSGGTTYYADSVKGRFTISRDNAKNTVYLQMNSLKPEDTAVYYCNVVKRRSDWGMDYWGQGTQVTVSS,high polyreactivity
15,QVQLVESGGGLVQAGGSLRLSCAASGTFSQYAMGWYRQAPGKERQLVAAISQGGGSTYYADSVKGRFTISRDNAKNTVYLQMNSLKPEDTAVYYCARSRSYWGIVYGRYDYWGQGTQVTVSS,high polyreactivity
16,QVQLVESGGGLVQAGGSLRLSCAASGTFSYYAMGWYIQAPGKERELVATIRSGGRTYYADSVKGRFTISRDNAKNTVYLQMNSLKPEDTAVYYCAKTGFLGLRQYGYWGQGTRVTVSS,high polyreactivity
17,QVQLVESGGGLVQAGGSLRLSCAASGTFVKYARGWYRQAPGKERELVATITGSGGSTYYADSVKGRFTISRDNAKNTVYLQMNSLKPEDTAVYYCAAREGYVFYKYDYWGQGTQVTVSS,low polyreactivity
18,QVQLVESGGGLVQAGGSLRLSCAASGTFYKYSMGWYRQAPGKERELVAAISWRGGRTYADSVKGRFTISRDNAKNTVYLQMNSLKPEDTAVYYCNKRFYPEHYYWGQGTQVTVSS,high polyreactivity
19,QVQLVESGGGLVQAGGSLRLSCAASGTFYYYAMGWYRQAPGKERDLVAGITSGGSTYYADSVKGRFTISRDNAKNTVYLQMNSLKPEDTAVYYCNTKVISRTSERRGNGFTRYDYWGQGTQVTVSS,low polyreactivity
20,QVQLVESGGGLVQAGGSLRLSCAASGTFYYYAMGWYRQAPGKERELVAAIDYSGGSTYYADSVKGRFTISRDNAKNTVYLQMNSLKPEDTAVYYCAYVSVYDFEFWGQGTQVTVSS,high polyreactivity
21,QVQLVESGGGLVQAGGSLRLSCAASGTIFAANAMGWYRQAPGKERELVAAISSGDGTYYADSVKGRFTISRDNAKNTVYLQMNSLKPEDTAVYYCAARFTYYSGYYAGSYGYWGQGTQVTVSS,high polyreactivity

row,Sequence,polyreactivity (PSR sort gate)
1,QVQLVESGGGLVQAGGSLRLSCAASGTIFAPNAMGWYRQAPGKERELVAAISRSGGRTYYADSVKGRFTISRDNAKNTVYLQMNSLKPEDTAVYYCAADYKHQRTYGSWGQGTQVTVSS,high polyreactivity
2,QVQLVESGGGLVQAGGSLRLSCAASGTIFATYAMGWYRQAPGKERELVAAITSSDGSTNYADSVKGRFTISRDNAKNTVYLQMNSLKPEDTAVYYCAKDTPQSYFRYDYLGQGTQVTVSS,low polyreactivity
3,QVQLVESGGGLVQAGGSLRLSCAASGTIFDDNAMGWYRHAPGKERELVAAISANDGSTYYADSVKGRFTISRDNAKNTVYLQMNSLKQEDTAVYYCAVLRVETVDIWEYDYWGQGTQVTVTS,low polyreactivity
4,QVQLVESGGGLVQAGGSLRLSCAASGTIFFFYVMGWYRQAPGKERELVAAITYSGGSTFYADSVKGRFTISRDNAKNTVYLQMNSLKPEDTAVYYCAAVYGQWTPLDPYNHWGQGTQVTVSS,low polyreactivity
5,QVQLVESGGGLVQAGGSLRLSCAASGTIFLVYAMGWYIQAPGKERELVAAITFSGGDTYADSVKGRFTISRDNAKNTVYLQMNSLKPEDTAVYYCNAPWPYYGSVVGQDFDYWGQGTQVTVSS,low polyreactivity
6,QVQLVESGGGLVQAGGSLRLSCAASGTIFQQYAMGWYRQAPGKERELVAAISYSGGTTYYADSVKGRFTISRDNAKNTVYLQMNSLKPEYTSVYYCAAYYPSGSYDYYWGQGTQVTVSS,low polyreactivity
7,QVQLVESGGGLVQAGGSLRLSCAASGTIFSRNAMGWYRQAPGKERELVAAINARGGSTYYADSVKGRFTISRDNAKNTVYLQMNSLKPEDTAVYYCAARYGVGRADYYWGQGTQVTVSS,high polyreactivity
8,QVQLVESGGGLVQAGGSLRLSCAASGTIFTDNVMGWYRQAPGKERELVAAITYSAASTYYADSVKGRFTISRDNAKNTVYLQMNSLKPEDTAVYYCNADDPDYLVSYRYDYWGQGTQVTVSS,low polyreactivity
9,QVQLVESGGGLVQAGGSLRLSCAASGTIPGYAMGWYRQAPGKETELVAAITWSDDSTFYADSVKGRFTISRDNAKNTVYLQMNSLKPEDTAVYYCAAEYVVSTQEFDYWGQGTQVTVSS,low polyreactivity
10,QVQLVESGGGLVQAGGSLRLSCAASGTISASYAMGWYRQATGKERELVAAISSGGDTNYADSVKGRFTISRDNAKNTVYLQMNSLKPEDTAVYYCAADTDSDQGSEYDYWGQGTQVTVSS,low polyreactivity
11,QVQLVESGGGLVQAGGSLRLSCAASGTTFGRNAMGWYRQAPGKERELVAAITACGGTTYYADSVKGRFTISRDNAKNTVYLQMNSLKPEDTAVYYCARAGHFSFKYDYWGQGTQVTVSS,low polyreactivity
12,QVQLVESGGGLVQAGGSLRLSCAASGTTFPIYAMGWYRQAPGKERELVADITSTGSTDYADSVKGRFTISRDNAKNTVYLQMNSLKPEDTAVYYCAAAWKAYRRYGYWGQGTQVTVSS,high polyreactivity
13,QVQLVESGGGLVQAGGSLRLSCAASGTTFYRNAMGWYRQAPGKERELVAAISWTGGRTYYADSVKGRFTISRDNAKNTVYLQMNSLKPEDTAVYYCNKGDSASSLDYWGQGTQVTVSS,high polyreactivity
14,QVQLVESGGGLVQAGGSLRLSCAASGTTISANAMGWYRQAPGKERELVAAIRWSDGRTYYADSVKGRFTISRDNAKNTVYLQMNSLKPEDTAVYYCNRVLSYHRHKLGMGYWGQGTQVTVSS,high polyreactivity
15,QVQLVESGGGLVQAGGSLRLSCAASGTTLYYYAMGWSRQAPGKERELVASITKSGASTYYADSVKGRFTISRDNAKNTVYLQMNSLKPEDTAVYYCARDPFWRGYTPRHYNYWGQGTQVTVSS,low polyreactivity
16,QVQLVESGGGLVQAGGSLRLSCAASGVIFGRYAMGWYREAPGKERELVAAISWGGGSTRYADSVKGRFTISRDNAKNTVYLQMNSLKPEDTAVYYCAAYRYWGRTSYSYDYWGQGTQVTVSS,high polyreactivity
17,QVQLVESGGGLVQAGGSLRLSCAASGVIFLWYAMGWYRQAPGKERELVARISNGGSTYYADSVKGRFTISRDNAKNTVYLQMISLKPEDTAVYYCNKVYYWIAYGHRSYLMDYWGQGTQVTVSS,high polyreactivity
18,QVQLVESGGGLVQAGGSLRLSCAASGVIFNRYAMGWYRQAPGKERELVAAISSGGNTHYADSVKGRFTISRDNAKNTDYLQMNSLKPEDTAVYYCAKAFRHSTFFAPYDYWGQGTQVTVSS,low polyreactivity
19,QVQLVESGGGLVQAGGSLRLSCAASGVIFVNNGMGWYRQAPGKERELVAAISSGGSTNYADSVKGRFTIARDNAKNTDYLQMNSLKPEDTAVYYCAVVDYLWLLQLWLSDYWGQGTQVTVSS,low polyreactivity
20,QVQLVESGGGLVQAGGSLRLSCAASGVIFVWYAMGWYRQAPGKERELVAAISSGGSTYYADSVKGRFTISRDNAKNTVYLQMNSLKPEDTAVYYCAADLWYYAYSYDYWGQGTQVTVSS,high polyreactivity
